Test results as given in the supplement of paper PMC12636428.

Test system: Saccharomyces cerevisiae
Assay: transcriptional activation domain activity (GFP:mCherry ratio, weighted mean of sorted bins, harmonized to initial dataset scale) (arbitrary fluorescence ratio units); higher = stronger transcriptional activation
Conditions: beta-estradiol 1 µM; induction time 4 h
Summary of the method: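 Barcoded tiles were sequenced after cells were sorted into 8 bins by GFP:mCherry ratio. Before sorting, cultures had been diluted 1:5 into SC with 1 uM beta-estradiol and held for 4 hours at 30 °C. The tiles were fused to an estradiol-inducible synthetic transcription factor and integrated at URA3 in yeast diploids carrying a GFP reporter. Activation activity is the read-weighted mean of bin median fluorescence, averaged over barcodes and linearly mapped onto the initial dataset scale, and tiles under 50 reads were left out.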

## MPPNHPIRLFPLLVQILLLLSASSLLLDTYDYINLGINSSFSYYYFLHLLTFL
  transcriptional activation domain activity: 44200

## MPPPRKPHRKSRYGCIQCKRRHVKCDEEKPCRRCLDREEQCSLKPDVAAADIT
  transcriptional activation domain activity: 17600

## MPPQSRQSRMPEAPAEPRSARGRVTKRRSGNACVRCRRQKIKCSGSHPCEACS
  transcriptional activation domain activity: 24800

## MPPRYIRYADRAVIENLSWYYWVFNPIMIGLYGPVRTIIDIYFRYFYNCILLF
  transcriptional activation domain activity: 40100

## MPPTSSSVSRSSFSRGRTSSCRPRYSSSRPTSSSTSGSSRRTARSSPSASPRS
  transcriptional activation domain activity: 11000

## MPPVAKQKRSAADRAKGASRAKSGCYTCRIRRKKCDEERDEHDHCRTCTRLRL
  transcriptional activation domain activity: 23700

## MPQESKGKASAAAQRAHEKESKRARGALSCAECRRLKLKCDKSVPCSSCVRRG
  transcriptional activation domain activity: 44700

## MPQSLTCRSASIIATQDCFDVIIFRLRFLLDIARGTLLLFRDHGRALTPFGRP
  transcriptional activation domain activity: 51100

## MPQTAGQAVWHFILSLLYYQFVPFHIRRFIFSCFPLPVNIPTLFVFLNVLFFW
  transcriptional activation domain activity: 51600

## MPRHLYLIYILYILMTWGLYLILLQVIFIITMLMIFIYPFSIYLFKFQHIRSL
  transcriptional activation domain activity: 49500

## MPRKAAAATTEIPAEPRRSSRIKEQPKVEPAPKKAPAKPRGKKAKAAEAEAAP
  transcriptional activation domain activity: 13000

## MPRLCCSCCYTDSLYFMIIRDRFFWLLHNGIVVVSLISYIRCMMISSPLLVGH
  transcriptional activation domain activity: 48400

## MPRLCLWLTCIYGVMYCMEFSLLVYALHSLANEYYPASYGDNLGCVTVNLHYY
  transcriptional activation domain activity: 44400

## MPRPFSFFFSFLLFLLFFFSIFFIFLFLLFFFLVKGIWTTYKYVLVTCLYLVI
  transcriptional activation domain activity: 32700

## MPRPKRPGAPEAKTRSRKGCWPCKARKVKCGEEKPACSNCSRQGVICDYSIRL
  transcriptional activation domain activity: 34600

## MPSAATRPCVQCAAAASRYNCPQCRASTCSAPCSKAHKLRAHGSDAAAGPSSA
  transcriptional activation domain activity: 47500

## MPSAYHLGITPFGVHQWDINLRTLQRYLFFLYCCWIIWGILVLLLKVIILLQY
  transcriptional activation domain activity: 39700

## MPSCFCFIPEFTALSLPPLCSLFWFRLCTWLFLRMLCTRIYLFCSWFFCLTYF
  transcriptional activation domain activity: 56400

## MPSFFLFFLFFFLLSQCFLVLCHVCIGLVSFSSLSFFFFFPYSTFFSPLPFFL
  transcriptional activation domain activity: 61700

## MPSFTFAWPDRAYFYSLLVVSLLSAKFLHLFSHLTALPIFLFLLYFPTFVFLD
  transcriptional activation domain activity: 71900

## MPSFTLAWPDRAYFYSLLVVSLLSAKFLHLFSHLTALPIFLFLLYFPTFVFLD
  transcriptional activation domain activity: 76700

## MPSITLAWPDRAYFYSLLVVSLLSSKLLHVFSHLTAIPIFLFLLYFPTFLFLD
  transcriptional activation domain activity: 72500

## MPSITLTWPDRAYFYSLLVVSLLSAKLLHVFSHLTTIPIFLFLLYFPTFFFLD
  transcriptional activation domain activity: 57300

## MPTDHASDTPSLGESSNQGAHKGYGRACLQCRQKKRKCRPSETKPDLCLLCEK
  transcriptional activation domain activity: 40000

## MPTITLAWPERAYFYSLLVVSLLSAKLLHVFSHLTTIPIFLFLLYFPTFLFLD
  transcriptional activation domain activity: 59600

## MPTLLVSLCSFFPWPLFLSFLFLVFHTFASLVIVQKSHFILSYILIMHLSFFA
  transcriptional activation domain activity: 46300

## MPTNFTKEGRTCTVTYKIQVHMIRPAVFIDFITLWIRQTFGMIVMVVTAELPR
  transcriptional activation domain activity: 47800

## MPTPGLDHSLQMMPDGNSGVNPSLLGDFDLFSASAYQAELDYLSFPFMDSFLA
  transcriptional activation domain activity: 140000

## MPTPSFFCFFLLFLSPMLNMRGDTFTAPLIFSFFVFFFFFFMLSLHFLLVFFS
  transcriptional activation domain activity: 46400

## MPTTSHSLFLRYVFLFVAWLVFREVFALMGFFLLLIFLIPKIVKVPFFFFFFL
  transcriptional activation domain activity: 55000

## MPTVRCLLPFVLFTGLLYRILLSLSFLLVLPFLILLFSSPSLLSCFLLLAYIL
  transcriptional activation domain activity: 57000

## MPVGIVLQLIAAVQYHLYTAMLFTWTDYKTIFFPYLLKCCLWVWVHQLLCNVS
  transcriptional activation domain activity: 56900

## MPVLFVFFSSFHSFIFLFFFYYGWLKVVIQVVMRLWGYKSLVGFFFLHGLLVC
  transcriptional activation domain activity: 66500

## MPVLPKSSSTKRAGAPKAKGAVRAKSGCYTCRIRRKKCDENPDDAGQCQTCVR
  transcriptional activation domain activity: 36600

## MPVLPYFFAKFIIDIPRIVIGGSMFSLALVVFFPYQQPFVRMYGMVIILYFYS
  transcriptional activation domain activity: 51200

## MPVVKLMAEPFLFLFLFYLSVLALAFFYFFYFFYFFFLKILPGMMVFSSLGCF
  transcriptional activation domain activity: 55500

## MPWFIVCPLIFCSFGPFDALLSVLFFFYEHHFLLVIFPLTLIMQFSFLLSYFS
  transcriptional activation domain activity: 53100

## MPWGGWGYIFDVTRPFFFCFISCLFLFYICLLGFLVGFFCFSFFFDLFIFFMT
  transcriptional activation domain activity: 24600

## MPYKKGHFVWILVYAIAVQSGNVMKKRVGVVTLVLKMPSRKILPPWSTLVCKT
  transcriptional activation domain activity: 47300

## MQADNLPFMCVCPYFLSTYSSSLSLVFPLFFFLCLFLLFPFFAFLLLLSLFSC
  transcriptional activation domain activity: 44500

## MQAGIHNVLFHFRNKWWIQIIGSGLPYFVLLAGRGLMCIFLFLIFRLRRCLCV
  transcriptional activation domain activity: 67300

## MQASFIFLSFTSGVIHTYILYLDLVAYFLLSLGGFVLIIGFWRWGFFFSFFPF
  transcriptional activation domain activity: 55400

## MQCIFVHILLVFIINTFYLVHRLFSSSFLSSFTLFCFLYTHYSFLFFRLIHIS
  transcriptional activation domain activity: 69500

## MQCSISYWRQNQVTDNFALFYIIPCFLSILLYYSSFQSYYEQRAWRLILFFYF
  transcriptional activation domain activity: 56700

## MQDGEHEQRLNGRKLALEAENYIIISTRLQKPCIGVVQVLLLLIIMRTISASD
  transcriptional activation domain activity: 79600

## MQETNGNTTAADQGSRHDVPPPRRPTRSRNGCMTCRRRKVRCDEQRPRCSHCE
  transcriptional activation domain activity: 8920

## MQFDIGPFVFFGLGWLSAIYLLLFPFFFFFFRLFPSLEFWLDLALIFMFRVLH
  transcriptional activation domain activity: 46300

## MQFSLLFFFCLLFPPLLLFLCSFFFSFLFLEIFGFVNCLGFRRSHFQRQALLV
  transcriptional activation domain activity: 54500

## MQGEETIASKTNKPRQRRAHTRSRTGCSECRNRRVRCDEQKPQCKNCINSQRI
  transcriptional activation domain activity: 24100

## MQGGRLVIYLYYFLMEVFNVLFFLFLFRCWSLLPSALGGGLCYLFLVWGLLFC
  transcriptional activation domain activity: 67000

## MQGSGKLSGLIFLSCFFSLLFFFFSFLFFYFFLLSNQLLFFCPNLVLDVALFT
  transcriptional activation domain activity: 18000

## MQGWVHALFSFFFNLIVVALLSCLCFIHLSSSYYNLCPVLYLTTPCLFIRFYI
  transcriptional activation domain activity: 62000

## MQIQALAFPSYCQNTLFMPCTSIVCLDFFFLLHIFPLVPRSLDVFFLFLLVHL
  transcriptional activation domain activity: 76400

## MQIVLYLHCKVCFIYFHCLLLDFRSFLHIQRPQEPWIAYIFPTTACVSPQTRR
  transcriptional activation domain activity: 55300

## MQLDGVQLGFVGLTPFFRERHTECPVFILVVGHSCKLLLIMHIILVIHLLDCR
  transcriptional activation domain activity: 52900

## MQMIFFLSLTFLILLFFFFFFFSSFPFPFTIITFYISNPLFYFVTLLVSITYF
  transcriptional activation domain activity: 19100

## MQMKMSESMSILILMLIMLELGWDVVDPCFFFTPFTPFPILPSFLPSFFFLFL
  transcriptional activation domain activity: 54500

## MQNKIVQALNWVCVDLNPPLTSFYFSPFFSFFPTLSSCFNTPLFFFLFSSFFF
  transcriptional activation domain activity: 61800

## MQQLFTFGSLFFPSFHPFFFFFFFFCHPSFLFFFLPSFLPFFLFFFLPSFLPF
  transcriptional activation domain activity: 58000

## MQSGHLFRLFGIAKTVLFFFSSVSCSLLHFLFSSFPFPIFPFVLSICYVFHFF
  transcriptional activation domain activity: 46600

## MQSKAFSFLLSHISLIGFFFTFYEVLLLQFWFLFSLIFIPSYLLMLIVHLFLL
  transcriptional activation domain activity: 49000

## MQTKVFVFPLFLHYLYCVIFHLLWILFGIAFIFSLVSIIIYLLIVFAHLFHFV
  transcriptional activation domain activity: 66700

## MQTSLLPLFSFLSFLFLLVFLLLLSLYLAFSHVAFSFLSLFFCYISFFLFYSF
  transcriptional activation domain activity: 26200

## MQVISYIFFCHVKYLFFVYSLHVVSNTNLSSYMLFNWLYLILLRLFVYIIYFI
  transcriptional activation domain activity: 71300

## MQVSNLLLLVLNLCCVVFLLINLDLHSCFFKLILFIFTSCLFNHPLPFQFIFT
  transcriptional activation domain activity: 51700

## MQWAGLMFFRCSICLLAFSVILMFGLVWYFFALCVVNRLSTICFVFWMLLSFL
  transcriptional activation domain activity: 42700

## MQYVANATPVTCDYDGFDGSGMLVIPNIAIYLSATSGLACIIKCFEILWWYMA
  transcriptional activation domain activity: 65000

## MRAAMDICVLIKMPCPLLKHTPFFTCAVTMAAVVYLSYWSFIATETGDDVIRE
  transcriptional activation domain activity: 46700

## MRAAPKYITFFLCYGSWFTSMTRGLSCPCWVYFIGHVSIVVVVVFFTFVYIHG
  transcriptional activation domain activity: 38800

## MRAKNLTWTTLIYFSTVLWFVGDLVTNNHVRLVGVWSECKLWILWFRVFFVYV
  transcriptional activation domain activity: 84300

## MRAVDIPSLAFNAVGVSNHGIQQMPVAEFATVMKSLVTILLKSMPLDKEKRYQ
  transcriptional activation domain activity: 38900

## MRCLRSVLGVFFLSYSLYILHCIFCLISYPLAISFMNLSCLGWFHGFWGFIYF
  transcriptional activation domain activity: 36000

## MRCPFHLLHTTSGLVYTFYLLFWVLVDTLMFYFFFPSCMSLGSVGHLLFISCC
  transcriptional activation domain activity: 67600

## MRDGKQGMREKKRKEEGESKSEKKNGKGGRMGKRGGKGKGRKREEQRRVGIEK
  transcriptional activation domain activity: 28100

## MRDIIGISIFLFFSLFLFYLSFCFCMRNVNLSFSLFILTLIDCLTDLLIMVPI
  transcriptional activation domain activity: 60300

## MRDISTLTVCCPLLFFLNLLHFLCFSLCFSLTYFINCLTFLLFLYISFFIKLF
  transcriptional activation domain activity: 42800

## MRDNQYPPYLLSVVHFTCQPPFGVRNLHSPIFILFQYVPHVLLIHFSSFVIFF
  transcriptional activation domain activity: 64300

## MREAERAREEQEQERRRVEKVREREREREQERLERERLKAERERAAAAAVVAA
  transcriptional activation domain activity: 40100

## MREDITQIDLITFYLCIFLSITVFVELIILCWIRILSIFNVCLFALLLCQLVY
  transcriptional activation domain activity: 33700

## MREGWVWISEYRVLCLYFFFFLFLFFSNSFFFSPIYLFLFFTLFLVCLLCFRP
  transcriptional activation domain activity: 53400

## MREKDNDETTTGIFFLFLFLDKILLLFAWYLPWSSSQFLRLLFSLVLFWAVTL
  transcriptional activation domain activity: 45300

## MRELFIFILFLFHFYPYSYFNYYIFFSFSYFLFRYFVSIIIIFFLIQVVFGLV
  transcriptional activation domain activity: 101000

## MREYIRFYFDTLHSSRVFVVWLLTHVLFLEKDRLKAMFAKDEFNGIEEIKMRY
  transcriptional activation domain activity: 24900
